Laboratory results: patent US20230049752A1 (University of California, published 2023)

T1: mouse Claudin-6 (CLDN6) (mouse, UniProt Q9Z262 1-219)
T1 construct: whole, on cells; GFP fusion on engineered HEK293T cells; also called Mouse CLDN6; murine CLDN6
T1 sequence (looked up): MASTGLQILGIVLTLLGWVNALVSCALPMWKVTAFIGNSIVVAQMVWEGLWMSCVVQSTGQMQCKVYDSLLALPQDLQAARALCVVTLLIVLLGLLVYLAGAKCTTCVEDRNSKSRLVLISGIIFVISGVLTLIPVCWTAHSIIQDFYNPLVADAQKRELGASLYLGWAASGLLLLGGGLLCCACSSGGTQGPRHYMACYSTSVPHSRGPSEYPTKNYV


Assays:
[1] = target: human Claudin-6 (CLDN6) (human) (UniProt P56747); experiment: FACS, 1.5 ug Ab, OVCA429 cells (2nd Ab only 885.77)
[2] = target: human Claudin-6 (CLDN6) (human) (UniProt P56747); experiment: FACS, 1.5 ug Ab, 293T clone expressing human CLDN6 (2nd Ab only 768.07)
[3] = target: human Claudin-6 (CLDN6) (human) (UniProt P56747); experiment: FACS, 1.5 ug Ab, ARK2 cells (2nd Ab only 1351.21)
[4] = target: human Claudin-6 (CLDN6) (human) (UniProt P56747); experiment: FACS, 0.3 ug Ab, 293T clone expressing human CLDN6 (2nd Ab only 768.07)
[5] = target: human Claudin-6 (CLDN6) (human) (UniProt P56747); experiment: FACS, 0.3 ug Ab, ARK2 cells (2nd Ab only 1351.21)
mouse Claudin-6 (CLDN6) = target: T1, mouse Claudin-6 (CLDN6); experiment: FACS, 293T clone expressing mouse CLDN6, dose not stated (2nd Ab only 1061.72)
Description: Two doses (1.5 μg or 0.3 μg) of the humanized antibodies were tested for binding to either human CLDN6 or murine CLDN6 which proteins were expressed by engineered 293T clones.

[6] = target: human Claudin-6 (CLDN6) (human) (UniProt P56747); experiment: FACS, limiting dilution, UMUC4 cells
[7] = target: human Claudin-6 (CLDN6) (human) (UniProt P56747); experiment: FACS, limiting dilution, OV90 cells
[8] = target: human Claudin-6 (CLDN6) (human) (UniProt P56747); experiment: FACS, limiting dilution, ARK2 cells

| FACS fluorescence [1] | FACS fluorescence [2] | FACS fluorescence [3] | FACS fluorescence [4] | FACS fluorescence [5] | FACS fluorescence (mouse Claudin-6 (CLDN6)) | Binder | further results |
| --- | --- | --- | --- | --- | --- | --- | --- |
| 3220 | 54400 | 1380 | 32400 | 1130 | – | AB18-4 (antibody, V domains shown) VH: QVQLVQSGAEVKKPGASVKVSCKASGYSFTGYNMNWVRQAPGQGLEWMGNIDPYYGGSTYAQKFQGRVTMTVDTSTSTVYMELSSLRSEDTAVYYCARERSGYVFSAMDYWGQGTLVTVSS VL: DIVMTQSPDSLAVSLGERVTMNCKSSQSVLFSSNQKNYLAWYQQKPGQPPKLLIYWASTRESGVPDRFSGSGSGTDFTLTISSVQAEDVAVYYCHQYLSSRTFGQGTKLEIK | – |
| 6750 | 58500 | 1940 | 26900 | 1390 | – | AB18-6 (antibody, V domains shown) VH: QVQLVQSGAEVKKPGASVKISCKASGYSFTGYNMNWVRQAPGQGLEWIGNIDPYYGGSTYAQKFQGRATLTVDTSTSTAYMELSSLRSEDTAVYYCARERSGYVFSAMDYWGQGTLVTVSS VL: DIVMTQSPDSLAVSLGERVTMNCKSSQSVLFSSNQKNYLAWYQQKPGQPPKLLIYWASTRESGVPDRFSGSGSGTDFTLTISSVQAEDVAVYYCHQYLSSRTFGQGTKLEIK | – |
| – | 29200 | 9840 | 10800 | 3300 | 14200 | AB4-6 (antibody, V domains shown, humanized) VH: QVQLVQSGAEVKKPGASVKMSCKASGYTFTSYTMHWIRQAPGQGLEWIGYINPSSTYTHYAQKFQGRATLTADKSTSTAYMELSSLRSEDTAVYYCSRGELGGFAYWGQGTLVTVSS VL: DVVMTQSPLSLPVTLGQPASISCRSSQSLVHSDGNTYLNWYQQRPGQSPRLLIYKVSNRFSGVPDRFSGSGSGTDFTLKISRVEAEDVGVYYCSQSTHVPYTFGQGTKLEIK | – |
| – | 33300 | 7560 | 19200 | 2770 | 6640 | AB4-7 (antibody, V domains shown, humanized) VH: QVQLVQSGAEVKKPGASVKMSCKASGYTFTSYTMHWIRQAPGQGQEWIGYINPSSTYTHYAQKFQGRATLTADKSTSTAYMELSSLRSEDTAVYYCSRGELGGFAYWGQGTLVTVSS VL: DVVMTQSPLSLPVTLGQPASISCRSSQSLVHSDGNTYLNWYQQRPGQSPRLLIYKVSNRFSGVPDRFSGSGSGTDFTLKISRVEAEDVGVYYCSQSTHVPYTFGQGTKLEIK | – |
| – | 56900 | 7790 | 37200 | 3060 | 1780 | AB4-9 (antibody, V domains shown, humanized) VH: QVQLVQSGAEVKKPGASVKMSCKASGYTFTSYTMHWIRQAPGQGLEWIGYINPSSTYTHYIKKFKDRATLTADTSTSTAYMELSSLRSEDTAVYYCSRGELGGFAYWGQGTLVTVSS VL: DVVMTQSPLSLPVTLGQPASISCRSSQSLVHSDGNTYLNWYQQRPGQSPRLLIYKVSNRFSGVPDRFSGSGSGTDFTLKISRVEAEDVGVYYCSQSTHVPYTFGQGTKLEIK | – |
| – | 77600 | 7310 | 49300 | 3120 | 4700 | AB4-8 (antibody, V domains shown, humanized) VH: QVQLVQSGAEVKKPGASVKVSCKASGYTFTSYTMHWVRQAPGQGLEWMGYINPSSTYTHYIKKFKDRVTMTADTSTSTVYMELSSLRSEDTAVYYCSRGELGGFAYWGQGTLVTVSS VL: DVVMTQSPLSLPVTLGQPASISCRSSQSLVHSDGNTYLNWYQQRPGQSPRLLIYKVSNRFSGVPDRFSGSGSGTDFTLKISRVEAEDVGVYYCSQSTHVPYTFGQGTKLEIK | – |
| – | 77200 | 20200 | 50800 | 7210 | 2650 | AB4-10 (antibody, V domains shown, humanized) VH: QVQLVQSGAEVKKPGASVKMSCKASGYTFTSYTMHWIRQAPGQGQEWIGYINPSSTYTHYIKKFKDRATLTADTSTSTAYMELSSLRSEDTAVYYCSRGELGGFAYWGQGTLVTVSS VL: DVVMTQSPLSLPVTLGQPASISCRSSQSLVHSDGNTYLNWYQQRPGQSPRLLIYKVSNRFSGVPDRFSGSGSGTDFTLKISRVEAEDVGVYYCSQSTHVPYTFGQGTKLEIK | – |
| – | 86200 | 24200 | 71100 | 9690 | 1130 | AB4-12 (antibody, V domains shown, humanized) VH: QVQLVQSGAEVKKPGASVKMSCKASGYTFTSYTMHWIRQAPGQGQEWIGYINPSSTYTHYIKKFKDRATLTADKSTSTAYMELSSLRSEDTAVYYCSRGELGGFAYWGQGTLVTVSS VL: DVVMTQSPLSLPVTLGQPASISCRSSQSLVHSDGNTYLNWYQQRPGQSPRLLIYKVSNRFSGVPDRFSGSGSGTDFTLKISRVEAEDVGVYYCSQSTHVPYTFGQGTKLEIK | – |
| – | 61200 | 9170 | 37800 | 6390 | 1230 | AB4-11 (antibody, V domains shown, humanized) VH: QVQLVQSGAEVKKPGASVKMSCKASGYTFTSYTMHWIRQAPGQGLEWIGYINPSSTYTHYIKKFKDRATLTADKSTSTAYMELSSLRSEDTAVYYCSRGELGGFAYWGQGTLVTVSS VL: DVVMTQSPLSLPVTLGQPASISCRSSQSLVHSDGNTYLNWYQQRPGQSPRLLIYKVSNRFSGVPDRFSGSGSGTDFTLKISRVEAEDVGVYYCSQSTHVPYTFGQGTKLEIK | – |
| 3570 | 72000 | 4490 | 46700 | 3510 | – | AB9-chim (antibody, V domains shown) VH: EVQLQQSGPELVKPGASVKMSCKASGYRFTDYNMHWVKQSHGKSLEWIGYINPNNGGTNYNQNFKGKATLTVNKSSSTAYMELRSLTSEDSAAYYCARDYLYFFDCWGQGTTLTVSS VL: DIQMTQSPASQSASLGESVTITCLASQTIGTWLAWYQQKPGKSPQLLIYAAASLADGVPSRFSGSGSGTRFSFKISSLQAEDFVSYYCQQLYSIPRTFGGGTKLEIK | – |
| 25500 | 135000 | 9150 | 73800 | 3440 | – | AB18-chim (antibody, V domains shown) VH: QVQLKQSGPELEKPGASVKISCKASGYSFTGYNMNWVKQSNGKSLEWIGNIDPYYGGSTYNQKFTGKATLTVDKSSSTAYMQLKSLTSEDSAVYYCARERSGYVFSAMDYWGQGTSVTVSS VL: NIMMTQSPSSLAVSAGEKVTMSCKSSQSVLFSSNQKNYLAWYQQKPGQSPRLLIYWASTRESGVPDRFTGSGSGTDFTLTISNVQAEDLAVYYCHQYLSSRTFGAGTKLELK | – |
| 1260 | 24600 | 1470 | 9500 | 1140 | – | AB9-3 (antibody, V domains shown) VH: QVQLVQSGAEVKKPGASVKMSCKASGYRFTDYNMHWVRQAPGQGLEWIGYINPNNGGTNYAQKFQGRATLTVDTSTSTAYMELSSLRSEDTAVYYCARDYLYFFDCWGQGTLLTVSS VL: DIQMTQSPSSLSASVGDRVTITCLASQTIGTWLAWYQQKPGKAPKLLIYAAASLADGVPSRFSGSGSGTDFTFTISSLQPEDFVTYYCQQLYSIPRTFGQGTKLEIK | – |
| 44700 | 207000 | 11200 | 79200 | 4440 | 99700 | AB1-7 (antibody, V domains shown, humanized) VH: QVQLVQSGAEVKKPGASVKMSCKASGYTFTTYTMHWVRQAPGQGLEWIGFINPSSGYTDYAQKFQGRVTLTADTSTSTVYMELSSLRSEDTAVYYCANGDYYVAYWGQGTLVTVSS VL: DIQLTQSPSSLSASVGDRVTMTCTASSSVSSTYFHWYQQKPGKAPKLLIYSTSNLASGVPSRFSGSGSGTDYTLTISSMQPEDAATYYCHQYHRSPLTFGQGTKLEIK | – |
| – | 113000 | 97700 | 64900 | 53900 | 101000 | AB1-11 (antibody, V domains shown, humanized; also called humanized AB1-11; HU-11) VH: QVQLVQSGAEVKKPGASVKMSCKASGYTFTTYTMHWVRQAPGQGLEWIGFINPSSGYTDYAQKFQGRVTLTADKSTSTVYMELSSLRSEDTAVYYCANGDYYVAYWGQGTLVTVSS VL: DIQLTQSPSSLSASVGDRVTMTCTASSSVSSTYFHWYQQKPGKAPKLWIYSTSNLASGVPSRFSGSGSGTDYTLTISSMQPEDAATYYCHQYHRSPLTFGQGTKLEIK | FACS signal at 0.32 nM [6]: 618; FACS signal at 1.6 nM [6]: 839; FACS signal at 8 nM [6]: 1610; FACS signal at 40 nM [6]: 4160; FACS signal at 200 nM [6]: 25700; FACS signal at 0.32 nM [7]: 452; FACS signal at 1.6 nM [7]: 753; FACS signal at 8 nM [7]: 2150; FACS signal at 40 nM [7]: 7820; FACS signal at 200 nM [7]: 32500; FACS signal at 1000 nM [7]: 72100; FACS signal at 0.32 nM [8]: 377; FACS signal at 1.6 nM [8]: 639; FACS signal at 8 nM [8]: 2290; FACS signal at 40 nM [8]: 3460; FACS signal at 200 nM [8]: 16400; FACS signal at 1000 nM [8]: 50500 |
